The target of this series is EGFRvIII (on U87-EGFRvIII cells) del30-297 (UniProt P00533). The experiment in a line: cell ELISA. To be noted: apparent Kd, fixed U87-EGFRvIII cells, 3% BSA in PBST block (PBS, 0.01% Tween 20, pH 7.4), 37 C 40 min, SELEX binding buffer: PBS, 5 mM MgCl2, glucose, yeast tRNA, salmon …. On the technique in general: An ELISA detects its analyte on a solid surface through an enzyme-linked reagent.

Consider “ATCCAGAGTGACGCAGCATGAATCTTTTCTTTTGGTTTTGATATTTATAGTTGGTGAATGGACACGGTGGCTTAGT [U8]”, for which the Kd worked out at 4.35 nM.

On to “ATCCAGAGTGACGCAGCATTTTGACGCTTTATCCTTTTCTTATGGCGGGATAGTTTCGTGGACACGGTGGCTTAGT [U2]”, for which the Kd stood at 3.37 nM.

Values taken from article PMC3948368.
